Experimental findings from IntAct's records for PubMed 22575959 are described below.

This assay addresses rspo1_human RSPO1 (UniProt Q2MKA7).

Sequence of rspo1_human RSPO1 (Q2MKA7 whole entry): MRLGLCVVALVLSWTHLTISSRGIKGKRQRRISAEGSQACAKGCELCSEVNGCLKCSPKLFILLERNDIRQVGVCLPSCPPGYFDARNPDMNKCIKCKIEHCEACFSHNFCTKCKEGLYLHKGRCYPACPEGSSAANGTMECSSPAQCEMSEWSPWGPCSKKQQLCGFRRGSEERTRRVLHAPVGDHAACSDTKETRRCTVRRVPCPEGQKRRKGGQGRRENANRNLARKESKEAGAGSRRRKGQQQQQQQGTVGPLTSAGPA

As for “E3 ubiquitin-protein ligase ZNRF3 (Homo sapiens), Q9ULT6 P103A”, the “effect of a mutation on the interaction” value was “disrupting interaction strength”.
